Measured values as given in PMC2847151 (Neurogenetics, 2009).

System: Mediator
Assay: Binding to Mediator upon transfection into HeLa cells
Details: wild-type vs mutant

B1: wildtype: wild-type MED25 protein (ARC92/ACID1); also as GAL4 fusion, full-length clone (1–754) (protein, UniProt Q71SY5 1-747, looked up)
chain: MVPGSEGPARAGSVVADVVFVIEGTANLGPYFEGLRKHYLLPAIEYFNGGPPAETDFGGDYGGTQYSLVVFNTVDCAPESYVQCHAPTSSAYEFVTWLDGIKFMGGGGESCSLIAEGLSTALQLFDDFKKMREQIGQTHRVCLLICNSPPYLLPAVESTTYSGCTTENLVQQIGERGIHFSIVSPRKLPALRLLFEKAAPPALLEPLQPPTDVSQDPRHMVLVRGLVLPVGGGSAPGPLQSKQPVPLPPAAPSGATLSAAPQQPLPPVPPQYQVPGNLSAAQVAAQNAVEAAKNQKAGLGPRFSPITPLQQAAPGVGPPFSQAPAPQLPPGPPGAPKPPPASQPSLVSTVAPGSGLAPTAQPGAPSMAGTVAPGGVSGPSPAQLGAPALGGQQSVSNKLLAWSGVLEWQEKPKPASVDANTKLTRSLPCQVYVNHGENLKTEQWPQKLIMQLIPQQLLTTLGPLFRNSRMVQFHFTNKDLESLKGLYRIMGNGFAGCVHFPHTAPCEVRVLMLLYSSKKKIFMGLIPYDQSGFVNGIRQVITNHKQVQQQKLEQQQRGMGGQQAPPGLGPILEDQARPSQNLLQLRPPQPQPQGTVGASGATGQPQPQGTAQPPPGAPQGPPGAASGPPPPGPILRPQNPGANPQLRSLLLNPPPPQTGVPPPQASLHHLQPPGAPALLPPPHQGLGQPQLGPPLLHPPPAQSWPAQLPPRAPLPGQMLLSGGPRGPVPQPGLQPSVMEDDILMDLI
modifications: full-length also GAL4 fusion
For B1, the “binding to Mediator” value was “bound indistinguishably to Mediator”.

B2: mutant MED25: MED25 protein carrying the p.A335V mutation; also as GAL4 fusion, full-length clone (1–754) (protein, UniProt Q71SY5 1-747, looked up, variant A335V)
chain: MVPGSEGPARAGSVVADVVFVIEGTANLGPYFEGLRKHYLLPAIEYFNGGPPAETDFGGDYGGTQYSLVVFNTVDCAPESYVQCHAPTSSAYEFVTWLDGIKFMGGGGESCSLIAEGLSTALQLFDDFKKMREQIGQTHRVCLLICNSPPYLLPAVESTTYSGCTTENLVQQIGERGIHFSIVSPRKLPALRLLFEKAAPPALLEPLQPPTDVSQDPRHMVLVRGLVLPVGGGSAPGPLQSKQPVPLPPAAPSGATLSAAPQQPLPPVPPQYQVPGNLSAAQVAAQNAVEAAKNQKAGLGPRFSPITPLQQAAPGVGPPFSQAPAPQLPPGPPGVPKPPPASQPSLVSTVAPGSGLAPTAQPGAPSMAGTVAPGGVSGPSPAQLGAPALGGQQSVSNKLLAWSGVLEWQEKPKPASVDANTKLTRSLPCQVYVNHGENLKTEQWPQKLIMQLIPQQLLTTLGPLFRNSRMVQFHFTNKDLESLKGLYRIMGNGFAGCVHFPHTAPCEVRVLMLLYSSKKKIFMGLIPYDQSGFVNGIRQVITNHKQVQQQKLEQQQRGMGGQQAPPGLGPILEDQARPSQNLLQLRPPQPQPQGTVGASGATGQPQPQGTAQPPPGAPQGPPGAASGPPPPGPILRPQNPGANPQLRSLLLNPPPPQTGVPPPQASLHHLQPPGAPALLPPPHQGLGQPQLGPPLLHPPPAQSWPAQLPPRAPLPGQMLLSGGPRGPVPQPGLQPSVMEDDILMDLI
modifications: full-length also GAL4 fusion
B2 was tested, and the “binding to Mediator” value was “bound indistinguishably to Mediator”.
